Test results: US20040204388A1 (UCB, published 2004)

Molecular target: T1, SV2A (rat); native protein of rat brain membranes, solubilized in n-dodecyl-β-D-maltoside; also endogenous in … (rat, UniProt Q02563 1-742)
T1 construct: Native protein from rat tissue or cells, not a recombinant construct; Native glycosylated integral membrane protein; also called soluble SV2A; immunopurified SV2A
Assay: Western blot of fractions immunopurified with anti-SV2A antibodies from solubilized rat brain membranes
Procedure: The rat brain membranes were diluted in a solubilization buffer (Tris-HCl 20 mM pH 7.4, 0.25 M sucrose, protease inhibitors Complete Roche) containing n-dodecyl-β-D-maltoside 15 mM and incubated for two hours at 4° C. Subsequently, the solution was centrifuged at 4° C. for one hour at 100,000 g.

T1 sequence (Q02563 whole entry C340F): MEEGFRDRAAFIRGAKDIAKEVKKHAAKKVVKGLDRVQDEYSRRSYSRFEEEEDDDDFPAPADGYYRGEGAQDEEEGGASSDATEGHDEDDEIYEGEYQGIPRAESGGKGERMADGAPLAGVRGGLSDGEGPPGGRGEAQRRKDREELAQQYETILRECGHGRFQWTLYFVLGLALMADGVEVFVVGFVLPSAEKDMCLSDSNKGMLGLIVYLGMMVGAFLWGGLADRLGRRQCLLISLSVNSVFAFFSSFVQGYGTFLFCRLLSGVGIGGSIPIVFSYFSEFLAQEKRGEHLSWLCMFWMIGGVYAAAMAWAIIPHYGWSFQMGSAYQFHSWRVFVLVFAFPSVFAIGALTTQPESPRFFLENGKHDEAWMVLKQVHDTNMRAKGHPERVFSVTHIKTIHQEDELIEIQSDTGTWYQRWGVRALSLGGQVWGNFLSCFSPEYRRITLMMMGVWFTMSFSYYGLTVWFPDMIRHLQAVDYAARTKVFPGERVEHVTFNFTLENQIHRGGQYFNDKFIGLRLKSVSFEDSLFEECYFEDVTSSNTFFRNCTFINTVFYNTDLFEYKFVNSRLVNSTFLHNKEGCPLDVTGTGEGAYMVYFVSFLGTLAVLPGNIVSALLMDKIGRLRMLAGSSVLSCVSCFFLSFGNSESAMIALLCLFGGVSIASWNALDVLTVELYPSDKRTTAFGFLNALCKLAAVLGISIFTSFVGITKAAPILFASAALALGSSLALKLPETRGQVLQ

B1: SV2B (rat; native isoform in rat brain membranes) (other)
chain: MDDYRYRDNYEGYAPNDGYYRGNEQNPEEDAQSDVTEGHDEEDEIYEGEYQGIPHPDDVKSKQTKMAPSRADGLRGQADLMAERMEDEEQLAHQYETIIDECGHGRFQWTLFFVLVLALMADGVEVFVVSFALPSAEKDMCLSSSKKGMLGLIVYLGMMAGAFILGGLADKLGRKKVLSMSLAINASFASLSSFVQGYGAFLFCRLISGIGIGGSLPIVFAYFSEFLSREKRGEHLSWLGIFWMTGGIYASAMAWSIIPHYGWGFSMGTNYHFHSWRVFVIVCALPATVSMVALKFMPESPRFLLEMGKHDEAWMILKQVHDTNMRAKGTPEKVFTVSHIKTPKQMDEFIEIQSSTGTWYQRWLVRFMTIFKQVWDNALYCVMGPYRMNTLILAVVWFTMALSYYGLTVWFPDMIRYFQDEEYKSKMKVFFGEHVHGATINFTMENQIHQHGKLVNDKFIKMYFKHVLFEDTFFDKCYFEDVTSTDTYFKNCTIESTTFYNTDLYKHKFIDCRFINSTFLEQKEGCHMDFEEDNDFLIYLVSFLGSLSVLPGNIISALLMDRIGRLKMIGGSMLISAVCCFFLFFGNSESAMIGWQCLFCGTSIAAWNALDVITVELYPTNQRATAFGILNGLCKLGAILGNTIFASFVGITKVVPILLAAASLVGGGLVALRLPETREQVLM
notes: Native protein of rat brain; also called isoform SV2B
binding result: no binding
